Measured values taken from the DeepSol protein solubility set.

Assay: soluble on expression in E. coli; label from the status in PepcDB or PDB records

| Sequence | soluble on expression in E. coli |
| --- | --- |
| MFHLVDFQVTIAEILIIIMRTFRIAIWNLDVIISSIVRQLFKPLTKKNYSELDDEEPMELDYP | soluble |
| MSFELPALPFAKDALEPHISAETLDYHHGKHHNTYVVKLNGLIPGTEFEGKTLEEIIKTSTGGVFNNAAQIWNHTFYWNCLAPNAGGQPTGAVAAAIDAAFGSFEEFKAKFTDSAINNFGSSWTWLVKNADGSLAIVNTSNAATPLTDEGVTPLLTVDLWEHAYYIDFRNVRPDYMGAFWSLVNWSFVEENLAK | soluble |
| MGSDKIHHHHHHEKAVTHSESKEFKPETVKIGEDGELNIVPLYAPYQTYLKASLKADTSETDSKNYAEYVLRYIDKIGEKENFDPTTLETFFMLKATAYEQDMLNQTNELMKQHDEIKDIITKNYSASYEALPKKKATIFIAPSNLEFWSMTDPLAGVSGAAFQDSIIIQLNPNFDKEVLAYTIAHEYHHLVLNDTPELSRIDTSLDSVIFEGKADAFADQIVTDVSPPWNIPMDDTTKKHVARLIGNGEADYQEITMGNTEKDIPLWSRYSLGRDILTHHLKANPDLSIKTWTYEENHAILNGYKYQKLLE | not soluble |
| MRAAQALPQTAHVSHFGHGPRLVLALHCTIAHSGAWKGLTRILGEEAQFTAPDMLSHGRSPDWDGQGCFQDRILGIARTCLTEAPMDVIGHSFGATVALRLAVEHPERVRSLTLIEPVFFAVARQDAPELIDSHASDAQPYLDALAAGDHALAARLFNRMWSTADSPRWPDLPEATRAAMIRGIHVVPTMDAALFDDTAGLLAPGRLDRAAMPVLLLRGALTHPVMQAISMGLQRRLPDAVEMVIEGAGHMLPITHPDETAAHIRALWSRTG | not soluble |
| MGSDKIHHHHHHMYLSQLKAGGVICRQGETARLVPGFSSTYDLAKAAIAAKVSITDLIAKQGAGDTVDLAALAASGKLDCPVRHPDAAHMFLTGTGLTHTGSASARDNMHADTAGMSDSMKMFRMGLEGGKPKAGEWGVQPEWFYKGTGVNAIAPGDGLESPSFALDGGEEPEIAGFYVIDNDGTPVRLGFSLANEFSDHVTEKINYLYLAHSKLRPASFGPELLVGDLPANVTGASKILRDGKTVWEKPFLSGEDNMSHTIANLEYHHFKYGLFCQPGDLHVHMFGTATLSFADGFKTVPGDVFEVSASQFGLPLQNPLVVAAETPFAVKTL | not soluble |
| MGSDKIHHHHHHLKSAEGSTWNCCPIDWRAFQSNCYFPLTDNKTWAESERNCSGMGAHLMTISTEAEQNFIIQFLDRRLSYFLGLRDENAKGQWRWVDQTPFNPRRVFWHKNEPDNSQGENCVVLVYNQDKWAWNDVPCNFEASRICKIPGTTLN | not soluble |
| MTNLTNYHSHCLYCDGRANMEDFIRFAISEGFSSYGISSHAPLPFSTAWTMEWDRMDDYLSEFARLKEKYADKIELAIGLEIDYLNEESHPAIPRFQELPLDYRIGSVHMLYSPQGKVVDIDTPADIFRQLIDAHFEGDLDYVVHLYYKNLLRMVELGGFDILGHADKMHYNASCYRPGLLDEPWYDALVRDYFAEIARHGYIVEINTKSYHDLGTFYPNERYFPLLKELGIRVQVNSDAHYPERINNSRAEALAALKKVGFDTVVEWHGGQWKDMPLLQLEHHHHHH | soluble |
| MCDKLGGVAIAVQGALFEHNERRQLGDGAFIDIRSGWLTGGEELLDALLSTVPWRAERRQMYDRVVDVPRLVSFHDLTIEDPPHPQLARMRRRLNDIYGGELGEPFTTAGLCYYRDGSDSVAWHGDTIGRGSTEDTMVAIVSLGATRVFALRPRGRGPSLRLPLAHGDLLVMGGSCQRTFEHAVPKTSAPTGPRVSIQFRPRDVR | not soluble |
| MGSDKIHHHHHHMVVIEFKNVSKHFNLYKNKSYSLKEKFLNKVLNRNKLEVEQLHVLKNASFKIGQGETIGIIGENGTGKSTSLKLVANIIRPNEGQVTVKGKISSLLEVGVGFQPDMTGRENVYLYGSIMGLSKKEIDERYDEIVEFAELENFMDTPVKNYSSGMYMRLGFSVAVTVNPDILLVDEVLAVGDANFQKKCLNKIQAFKEQGKTILFVSHDMSTVRRICDRCIFIRKGGEVIEGSTDRMVGLYMKLLYAKSEEHKKEEQKSEESLADFDFKLHEADEFKDGNREGNKKLEITKLYFSDKEGRPRNFFGTEENIKVNVEFRKNTDIKAAVMAFEIITEEGYKLIYHDCKQDGMLITEMKDTNMVSFSLQNELLLKSKYYFSIALMDENLQEIYDFRHKHYWFTIHEGNIKEDGKVKISCDWML | not soluble |
| MSVWASRLKAMGLLENLLNRYTPRTSGTPVFAVIDTGTTGFNKRYDHIIELAAVRADAYFKPVDSWHALLNPDTNAVSTTRGTPPPTSALNPAVGVTRSEAS | not soluble |
| MGHHHHHHGSSSCAVSGASGCLPPARSRIFKIIVIGDSNVGKTCLTYRFCAGRFPDRTEATIGVDFRERAVDIDGERIKIQLWDTAGQERFRKSMVQHYYRNVHAVVFVYDMTNMASFHSLPAWIEECKQHLLANDIPRILVGNKCDLRSAIQVPTDLAQKFADTHSMPLFETSAKNPNDNDHVEAIFMTLAHKLKSH | soluble |
| MSSEIAYSNTNTNTENENRNTGAGVDVNTNANANANATANATANATANATAELNLPTVDEQRQYKVQLLLHINSILLARVIQMNNSLQNNLQNNINNSNNNNIIRIQQLISQFLKRVHANLQCISQINQGVPSAKPLILTPPQLANQQQPPQDILSKLYLLLARVFEIW | not soluble |
| AHKKIFLVEDNKADIRLIQEALANSTVPHEVVTVRDGMEAMAYLRQEGEYANASRPDLILLDLNLPKKDGREVLAEIKSDPTLKRIPVVVLSTSINEDDIFHSYDLHVNCYITKSANLSQLFQIVKGIEEFWLSTATLPS | soluble |
| MGHHHHHHSHSMKEENLCQAFSDALLCKIEDIDNEDWENPQLCSDYVKDIYQYLRQLEVLQSINPHFLDGRDINGRMRAILVDWLVQVHSKFRLLQETLYMCVGIMDRFLQVQPVSRKKLQLVGITALLLASKYEEMFSPNIEDFVYITDNAYTSSQIREMETLILKELKFELGRPLPLHFLRRASKAGEVDVEQHTLAKYLMELTLIDYDMVHYHPSKVAAAASCLSQKVLGQGKWNLKQQYYTGYTENEVLEVMQHMAKNVVKVNENLTKFIAIKNKYASSKLLKISMIPQLNSKAVKDLASPLIGRS | not soluble |
| MSKQIVILGAGYGGLLAALNVRKYYSKSEAQVTVINQYPTHQIITELHRLAAGNVSEQAVAMPLTKLFKGKDIDLKIATVESFSVDSKEIKLAGGTTLSYDALVVALGSKTAYFGIPGLEENSMVLKSAADANKIYKHVEDRIREYAKTKNEADATIVIGGGGLTGVELVGELADIMPKLAKSHGVNPKEVKLLLVEAGPKILPVLPDHLIERATTSLEARGVTFLTGLPVTNVAGNEIDLKDGQKLVANTFVWTGGVQGNPLIGESGLEVNRGRATVDAYLQSTSHKDVFVAGDSAVVFAPDGRPYPPTAQIAWQMGELIGYNLYAALEGKAFEEFAPVNSGTLASLGRKDAVATIGASNTPLKGLPASLMKEASNVRYLSHIKGLFSLAY | not soluble |
| MGSDKIHHHHHHMSQTQQSASITSETQSFDVILVGGGMVGAATAIGLAQQGLHIAVIESFAPEAYSPEQALDVRVSAISVASEHLLEQLGALDSLLKMRNVPYLGLETWELDGCITQFHSSQIGASHLGHIVENRLVQLALWEQMQQWENIRLFCPERVAHFARGVDTVSVHLQSGCLLEAKLLVGADGANSHVRQWAGIGISGWDYAQSAMLINIQTTQGQQDVTWQQFTPSGPRSLLPLPGNHASLVWYDDANRIKQLMQLNNKQLAEQIRQHFPARLDSDFIVEAKGSFALTRRHAQVYVKPNVVILGDAAHTINPLAGQGVNLGFKDVEALLSVIKAALTEDKPWWSTEVLGKYQAKRYLDNQLMMTTMDVFYAGFSNDILPLKLLRNGALKLANINSPLKQTVLKYAMGLN | not soluble |
| MGSSHHHHHHSSGLVPRGSMSTSWSDRLQNAADMPANMDKHALKKYRREAYHRVFVNRSLAMEKIKCFGFDMDYTLAVYKSPEYESLGFELTVERLVSIGYPQELLSFAYDSTFPTRGLVFDTLYGNLLKVDAYGNLLVCAHGFNFIRGPETREQYPNKFIQRDDTERFYILNTLFNLPETYLLACLVDFFTNCPRYTSCETGFKDGDLFMSYRSMFQDVRDAVDWVHYKGSLKEKTVENLEKYVVKDGKLPLLLSRMKEVGKVFLATNSDYKYTDKIMTYLFDFPHGPKPGSSHRPWQSYFDLILVDARKPLFFGEGTVLRQVDTKTGKLKIGTYTGPLQHGIVYSGGSSDTICDLLGAKGKDILYIGDHIFGDILKSKKRQGWRTFLVIPELAQELHVWTDKSSLFEELQSLDIFLAELYKHLDSSSNERPDISSIQRRIKKVTHDMDMCYGMMGSLFRSGSRQTLFASQVMRYADLYAASFINLLYYPFSYLFRAAHVLMPHESTVEHTHVDINEMESPLATRNRTSVDFKDTDYKRHQLTRSISEIKPPNL | soluble |
| MSLGLINVLIADDQTLMREGLKTIIDLEDDMNVTGLAKNGKEVLDQIPCLLPHVILMDIQMPIMNGIECLKVVKRIYPHINVLMLTTFEDDDYIIESLVGGANGFLLKDLNYDQLIYSIRQSVDGQMLIPNSIAVKLAKQLSKYNELTEVDLQIEKLKKEGLHFSERERQIASLLAQGLTNKKIAEKLYITEGTVKNYISEIYSKIGIRDRMQASTYLRELGINDEGHHHHHH | soluble |
| MKVNTWFGVLELDSNGKTLSSEVFPKDIRELALRSLSLRESRQNLPPEGFDLKTAALECGFTESLSEYYSLLHKVTLETVKLQVSQALTPDQRIIQAVEALDDINETTNSLSERLFEWYGGYFPESGLSGEELAVFISRYGSRENLPPEDPHYLKAKNSMGAKLEAADEVLLKGLAESVCSLYERRKQIEAYIESSMEILAPNLALLAGPMLGARLISIAGSLEKLAAFPSSTIQVIGASKALFKHLRSRAPSPKHGIIYSHPLINTSPWWVRGKVARALAAKLSLAARIDFYSAKRNPSLENELEEKIRKIRAENPRPPQKRQEIRAKPKKKRRKLEHHHHHH | soluble |
| MNITQILSQELSATAAQITAAVELLDDGATVPFIARYRKEATGGLDDTQLRRLAERLQYLRELEERKAVVLKSIEEQGKLSDDLRAQIEAADNKTALEDLYLPYKPKRRTKAQIAREHGLQPLADVLLAEQSQDVEAAAQGYLNENVPDAKAALDGARAILMEQFAEDAELIGTLRDKLWNEAEIHAQVVEGKETEGEKFSDYFDHREPVRTMPSHRALAVLRGRNEGVLNIALKYQPDDTPITRQSEYEQIIACRFKVSDGHKWLRDTVRLTWRAKIFLSLELEALGRLKEAADTDAITVFARNLKDLLLVAPAGRLTTLGLDPGYRNGVKCAVVDDTGKLLDTVIVYLHQENNMLATLSRLIKQHGVKLIAIGNGTASRETDKIAGELVRGMPEMGLHKIVVSEAGASIYSASELAAREFPDLDVSLRGAVSIARRLQDPLAELVKIDPKSIGVGQYQHDVNQNQLAKSLDAVVEDCVNAVGVDVNTASAPLLARISGLNQTLAQNIVAYRDENGAFDSRKKLLKVPRLGEKTFEQAAGFLRINGGKEPLDASAVHPEAYPVVAKMLAQQGISAAELIGNRERVKQIKASDFTDERFGLPTILDILSELEKPGRDPRGEFQTASFAEGIHEISDLQVGMILEGVVSNVANFGAFVDIGVHQDGLVHISALSNKFVQDPREVVKAGDVVKVKVLEVDAARKRIALTMRLDDEPGGAKHKMPSENRSRERTAGRKPQRNDRAPANSAMADAFAKLKR | soluble |
| VSAHVATLHPEPPFALCGPRGTLIARGVRTRYCDVRAAQAALRSGTAPILLGALPFDVSRPAALMVPDGVLRARKLPDWPTGPLPKVRVAAALPPPADYLTRIGRARDLLAAFDGPLHKVVLARAVQLTADAPLDARVLLRRLVVADPTAYGYLVDLTSAGNDDTGAALVGASPELLVARSGNRVMCKPFAGSAPRAADPKLDAANAAALASSAKNRHEHQLVVDTMRVALEPLCEDLTIPAQPQLNRTAAVWHLCTAITGRLRNISTTAIDLALALHPTPAVGGVPTKAATELIAELEGDRGFYAGAVGWCDGRGDGHWVVSIRCAQLSADRRAALAHAGGGIVAESDPDDELEETTTKFATILTALGVEQ | not soluble |
